Results published in US20130331333A1 (HADASIT MEDICAL RESEARCH SERVICES AND DEVELOPMENT, published 2013).
Substitutions are numbered along the chain they refer to.

B1: GST-PH-Vav3 (other, UniProt Q9UKW4 400-502, looked up)
chain: RPQGDGEIRITTLDKHTKQERHIFLFDLAVIVCKRKGDNYEMKEIIDLQQYKIANNPTTDKENKKWSYGFYLIHTQGQNGLEFYCKTKDLKKKWLEQFEMALS
notes: domain: PH domain; also called PH-domain-Vav3; Vav3-PH-domain; not shown: GST tag
B2: HA-tagged mutant hPar1-7A (receptor, human, UniProt P25116 42-425, looked up)
chain: SFLLRNPNDKYEPFWEDEEKNESGLTEYRLVSINKSSPLQKQLPAFISEDASGYLTSSWLTLFVPSVYTGVFVVSLPLNIMAIVVFILKMKVKKPAVVYMLHLATADVLFVSVLPFKISYYFSGSDWQFGSELCRFVTAAFYCNMYASILLMTVISIDRFLAVVYPMQSLSWRTLGRASFTCLAIWALAIAGVVPLLLKEQTIQVPGLNITTCHDVLNETLLEGYYAYYFSAFSAVFFFVPLIISTVCYVSIIRCLSSSAVANRSKKSRALFLSAAVFCIFIICFGPTNVLLIAHYSFLSHTSTTEAAYFAYLLCVCVSSISCCIDPLIYYYASSEAAAAAAAILCCKESSDPSSYNSSGQLMASKMDTCSSNLNNSIYKKLLT
notes: whole, on cells; Tested in lysates of transfected cells; also called HA-hPar1-7A; PAR1A7; not shown: HA tag

Tests used:
[1] = molecular target: T1, HA-tagged wt hPar1 (human, UniProt P25116 42-425); test: lysates of cells transfected with HA-tag-hPar1 applied on GST-PH-Vav3
T1 construct: whole, on cells; Tested in lysates of transfected cells; also called HA-wt hPar1; HA-wthPar1; not shown: HA tag added downstream of the ATG start codon
T1 sequence (looked up): B2 chain with A337C, A338Q, A339R, A340Y, A341V, A342Y, A343S
Procedure: GST fusion protein columns. Fusion proteins were purified from transformed Escherichia coli bacteria that had been stimulated with isopropyl-β-D-thio-galactopyranoside (IPTG) at a concentration of […]. Bacteria were lysed according to published procedures, and then immobilized on glutathione Sepharose beads (Pharmacia). Briefly, MDA-MB-435 cell lysates were applied to GST-PAR1C-tail or GST control columns. After 2 h binding periods to the designated protein/s cell lysates to the columns, a washing step was performed. The washes (×3) were carried out using a “wash buffer” including: 100 mM NaCL, 20 mM EDTA, 10 mM Tris, pH 8.0 and 1% Triton ×100. This step was performed in order to wash out all non-specific proteins, leaving the GST-PAR₁-C-tail column firmly bound to targeted cell lysate proteins. Next, elution of bound proteins was performed via the addition of gel “sample buffer” and appropriate boiling. The samples were run electrophoretically on SDS-PAGE gels, followed by immunoblotting with the indicated antibodies and ECL detection. GST-PH-Etk/Bmx. The PH domain in Etk/Bmx was bound to GST column as previously described (Chen R, et al. (2001) Nat Cell Biol. 3: 439-444).
Next, a panel of cell-lines was transfected with HA-tag-hPar1. Cell lysates were prepared and applied onto GST-PH-Akt or GST-PH-Vav₃. […]

[2] = molecular target: B2; test: cell lysates applied on GST-PH-Vav3
Procedure: GST fusion protein columns. Fusion proteins were purified from transformed Escherichia coli bacteria that had been stimulated with isopropyl-β-D-thio-galactopyranoside (IPTG) at a concentration of […]. Bacteria were lysed according to published procedures, and then immobilized on glutathione Sepharose beads (Pharmacia). Briefly, MDA-MB-435 cell lysates were applied to GST-PAR1C-tail or GST control columns. After 2 h binding periods to the designated protein/s cell lysates to the columns, a washing step was performed. The washes (×3) were carried out using a “wash buffer” including: 100 mM NaCL, 20 mM EDTA, 10 mM Tris, pH 8.0 and 1% Triton ×100. This step was performed in order to wash out all non-specific proteins, leaving the GST-PAR₁-C-tail column firmly bound to targeted cell lysate proteins. Next, elution of bound proteins was performed via the addition of gel “sample buffer” and appropriate boiling. The samples were run electrophoretically on SDS-PAGE gels, followed by immunoblotting with the indicated antibodies and ECL detection. GST-PH-Etk/Bmx. […]
(§1) Namely, without wishing to be bound by theory the PAR₁-C-tail appears to be an anchor region for association with PH-domain containing proteins. For this purpose, the association between Akt (which is ubiquitously expressed in the cells) and PAR₁ was analyzed, following activation. […]

[3] = molecular target: T2, wild-type protease-activated receptor 2 (wt hPar2) (human, UniProt P55085 37-397); test: cell lysates applied on GST immobilized PH-domain columns (PAR2)
T2 construct: whole, on cells; Species read from the name hPar2
T2 sequence (looked up): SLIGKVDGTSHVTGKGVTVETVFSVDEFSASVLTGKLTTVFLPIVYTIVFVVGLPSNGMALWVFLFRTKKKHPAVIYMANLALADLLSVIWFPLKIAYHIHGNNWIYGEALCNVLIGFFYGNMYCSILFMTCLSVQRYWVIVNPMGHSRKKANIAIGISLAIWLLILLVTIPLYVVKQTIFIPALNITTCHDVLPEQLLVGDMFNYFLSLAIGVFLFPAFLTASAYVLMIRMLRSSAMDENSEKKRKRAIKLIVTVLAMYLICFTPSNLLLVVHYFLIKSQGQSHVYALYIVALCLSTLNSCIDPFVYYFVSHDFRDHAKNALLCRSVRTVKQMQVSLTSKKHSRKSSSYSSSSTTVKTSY

[4] = molecular target: T3, Etk/Bmx (epithelial tyrosine kinase), wild type (UniProt P51813 1-675); test: co-immunoprecipitation with anti-HA, anti-Bmx blot, MCF7 clones after PAR1 activation
T3 construct: Plasmids after Tsai et al. 2000; also called wt-Etk
T3 sequence (looked up): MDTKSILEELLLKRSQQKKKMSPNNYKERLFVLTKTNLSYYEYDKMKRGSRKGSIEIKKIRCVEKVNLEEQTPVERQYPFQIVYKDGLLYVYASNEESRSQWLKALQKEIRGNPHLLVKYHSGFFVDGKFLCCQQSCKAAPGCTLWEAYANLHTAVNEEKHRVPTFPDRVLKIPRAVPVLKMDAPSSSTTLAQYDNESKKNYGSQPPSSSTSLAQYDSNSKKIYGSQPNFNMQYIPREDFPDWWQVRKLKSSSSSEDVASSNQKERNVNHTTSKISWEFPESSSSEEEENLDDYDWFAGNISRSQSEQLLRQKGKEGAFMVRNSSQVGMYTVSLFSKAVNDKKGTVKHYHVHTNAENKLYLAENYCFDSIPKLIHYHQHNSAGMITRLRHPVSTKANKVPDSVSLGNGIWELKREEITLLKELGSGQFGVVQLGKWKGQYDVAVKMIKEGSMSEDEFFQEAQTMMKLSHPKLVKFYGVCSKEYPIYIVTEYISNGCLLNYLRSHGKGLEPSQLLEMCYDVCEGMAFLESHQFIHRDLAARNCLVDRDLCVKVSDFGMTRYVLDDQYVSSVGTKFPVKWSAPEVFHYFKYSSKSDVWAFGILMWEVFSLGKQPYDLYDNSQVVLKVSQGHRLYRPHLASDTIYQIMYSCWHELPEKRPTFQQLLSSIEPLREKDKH
Procedure: After overnight incubation, Protein A-Sepharose beads (Amersham Pharmacia Biotech, Buckinghamshire, UK) were added to the suspension (50 μl), which was rotated at 4° C. for 1 h. The immunocomplexes were eluted and run electrophoretically on a 10% SDS-PAGE gel, followed by transfer to an Immobilon-P membrane (Millipore). Membranes were blocked and probed with 1 μg/ml amounts of the appropriate antibodies as follows: anti-PAR₁ thrombin receptor mAb, (ATAP, from Santa Cruz, 1:1000); anti-Shc (BD, 1:2000); anti-Bmx (Transduction Laboratories, 1:1000) or anti-PY (Upstate 4G10, 1:2500), suspended in 3% BSA in 10 mM Tris-HCl, pH 7.5, 100 mM NaCl, and 0.5% Tween-20. After washes the blots were incubated with secondary antibodies conjugated to horseradish-peroxidase. Immunoreactive bands were detected by enhanced chemiluminescence (ECL). Membranes were stripped and incubated with anti-IP antibodies to ensure equal protein load.
Based on the competition assay mutated hPar1 constructs with successive replacement of seven residues (378-384; CQRYVYS) were prepared. […] The clones expressing either HA-tagged wt hPar1 or a mutant construct of HA-hPar1-7A were activated and further analyzed for co-immunoprecipitation (IP) of PAR₁ with Etk/Bmx. […] The blots were detected by anti-Bmx (Transduction Laboratories, BD Biosciences, CA) for the identification of Etk/Bmx-associated PAR₁. […]

[5] = molecular target: Akt (PKB) (UniProt P31749 1-480, limits assumed); test: co-immunoprecipitation of Akt and PAR1 in transfected HU cells
Procedure: Western blot and immunoprecipitation analysis: Cells were activated with agonist peptide […] (SEQ ID NO: 35) for the indicated periods of time and solubilized in lysis buffer containing 10 mM Tris-HCl, pH 7.4, 150 mM NaCl, 1 mM EDTA, 1% TritonX-100, and protease inhibitors ([…] aprotinin, 1 mM phenylmethylsulfonylfluoride, and […] leupeptin) at 4° C. for 30 min. The cell lysates were subjected to centrifugation at 12,000 rpm at 4° C. for 20 min. We used 400 μg of the supernatants with anti-PAR₁ (ATAP, Santa Cruz, Calif. 1 μg), anti-HA (anti-HA sc-7392; Santa Cruz, Calif.), anti-Shc or Etk/Bmx antibodies (10 μg/ml). After overnight incubation, Protein A-Sepharose beads (Amersham Pharmacia Biotech, Buckinghamshire, UK) were added to the suspension (50 μl), which was rotated at 4° C. for 1 h. The immunocomplexes were eluted and run electrophoretically on a 10% SDS-PAGE gel, followed by transfer to an Immobilon-P membrane (Millipore). […] Immunoreactive bands were detected by enhanced chemiluminescence (ECL). […]
as §1

Chain of Akt (PKB) (P31749 whole entry): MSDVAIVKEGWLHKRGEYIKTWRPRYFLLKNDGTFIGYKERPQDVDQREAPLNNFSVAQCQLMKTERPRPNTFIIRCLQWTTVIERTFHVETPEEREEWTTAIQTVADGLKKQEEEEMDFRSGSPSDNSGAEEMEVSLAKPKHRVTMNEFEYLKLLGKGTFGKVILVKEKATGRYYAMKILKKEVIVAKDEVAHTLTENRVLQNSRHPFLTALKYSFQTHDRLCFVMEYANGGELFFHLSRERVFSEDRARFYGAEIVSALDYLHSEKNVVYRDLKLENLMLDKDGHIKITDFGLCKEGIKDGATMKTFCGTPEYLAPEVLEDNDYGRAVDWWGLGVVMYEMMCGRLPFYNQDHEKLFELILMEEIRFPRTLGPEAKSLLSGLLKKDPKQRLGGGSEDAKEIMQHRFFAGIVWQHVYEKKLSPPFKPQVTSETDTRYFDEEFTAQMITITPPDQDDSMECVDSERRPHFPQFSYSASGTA

Binder: B1
- binding result [1]: binds
- binding result [2]: no binding
- binding result [3]: binds

Binder: B2
- binding result [4]: no binding
- binding result [5]: no binding
